The values below come from US20060287503, “Retinoid X receptor-interacting polypeptides and related molecules and methods” (published 2006).

The target in data set [1] is T1, RIP14-1/RXRalpha heterodimer (Mus musculus / Homo sapiens, UniProt Q60641-2;P19793 Q60641-2:1-484,P19793:1-462). Briefly: EMSA; competition with 50-fold unlabeled betaRARE (specific) and AP1 (nonspecific) tested. Particulars: tags: human RXRalpha expressed in E. coli; label: 32P end label. How it is done:
(§1) In panel A, RIP14-1 without (lane 2) or with RXR (lanes 3-5) was incubated with the hsp27 promoter (EcRE) end-labeled with [³²P]ATP. In panel B, RIP15 (lanes 2-5) and RIP14-1 (lanes 9-12) without (lanes 2 and 9) or with (lanes 3-5 and 10-12) RXR were incubated with βRARE end-labeled with [³²P]ATP. In both cases, a 50-fold molar excess of unlabeled specific (sp; EcRE, lane A4 and βRARE, lanes B4 and B11) or nonspecific (ns; AP1, lanes A5, B5, and B12) oligomers were added with the labeled probe. Incubations with probe alone are shown in lanes A1, B1, and B8. Cell lysates used for in vitro translation were also incubated with the probes without (lanes A6 and B6) or with (lanes A7 and B7) RXR. RIP14-2 and the RIP14-1 chimeras containing a four amino acid insertion in the D domain (RIP14C) were also incubated with βRARE and RXR as shown in lanes B13 and B14, respectively. Specific bands are indicated by arrows.
(§2) To identify DNA sequences recognized by each orphan, in vitro translated proteins were used for gel shift assays. Because of their strong sequence similarity to the ecdysone receptor, a well studied ecdysone response element (EcRE) from the Drosophila hsp27 promoter (Riddilough et al., EMBO J. 6:3729-3734, 1987) was tested for binding to both orphans, in the presence and absence of RXR. […]

Data set [2] deals with T1, RIP14-1/RXRalpha heterodimer. Briefly: EMSA; competition with 50-fold unlabeled EcRE (specific) and AP1 (nonspecific) tested; 40 mM KCl, 2.5 mM MgCl2, pH 8.0, room temp. Particulars: tags: human RXRalpha expressed in E. coli; label: 32P end label. How it is done: as §1, §2
On the technique in general: Mobility shift assays separate free from complexed probe on a gel.

Data set [3] concerns the target RIP15/RXRalpha heterodimer (Mus musculus / Homo sapiens, UniProt Q60644;P19793 Q60644:1-446,P19793:1-462). Briefly: EMSA; with RXR. Particulars: tags: human RXRalpha expressed in E. coli; label: 32P end label. The protocol: (§3) The binding of the RIP14-2 isoform to this element was weaker than that of RIP14-1 when similar amounts of RIP14 proteins were used. […] Several other DNA elements were tested in the gel shift assay, including the retinoic acid response element from the promoter of the human RARβ2 isoform (βRARE) (de The et al., Nature 343:177-180, 1990). In the presence of RXR, the βRARE was bound by both the RIP14 isoforms and RIP15 (FIG. 8, panel B). Again, the binding of the RIP14-2/RXR heterodimer was weaker than the RIP14-1/RXR heterodimer when a similar amount of RIP14 proteins were used (FIG. 8, panel B, lanes 10 and 14).
(§4) RIP14 and RIP15 proteins were produced by in vitro translation (Promega TNT, Madison, Wis.) using expression vectors containing the RIP genes following a T7 promoter. To generate full length RIP14-2 constructs, fragments from RIP14-1 clone No. 15 containing regions from the middle of the E domain to the 3′ end replaced the corresponding regions of RIP14-2 Clones No. 3 or 12, respectively. Sequences were confirmed by DNA sequencing. Human RXRα protein was expressed in E. coli using a bacterial expression vector based on the bacteriophage T7 promoter (Carter et al., Mol. Cell. Biol. in press., 1994). […]

Data set [4] concerns the target T2, RIP15 (Mus musculus, UniProt Q60644 SEQ:1-446).
T2 chain: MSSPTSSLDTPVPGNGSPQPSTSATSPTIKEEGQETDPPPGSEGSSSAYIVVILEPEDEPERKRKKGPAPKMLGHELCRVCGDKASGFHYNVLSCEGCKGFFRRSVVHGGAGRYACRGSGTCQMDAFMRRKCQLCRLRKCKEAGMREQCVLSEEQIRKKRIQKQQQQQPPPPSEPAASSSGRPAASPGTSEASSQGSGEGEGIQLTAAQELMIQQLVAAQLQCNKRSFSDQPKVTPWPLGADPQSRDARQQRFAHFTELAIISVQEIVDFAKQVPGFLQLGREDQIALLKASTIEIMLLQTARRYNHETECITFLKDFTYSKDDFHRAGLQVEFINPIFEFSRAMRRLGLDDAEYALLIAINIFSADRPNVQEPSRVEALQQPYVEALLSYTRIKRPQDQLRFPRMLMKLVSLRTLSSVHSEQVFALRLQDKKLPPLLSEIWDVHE
The experiment in a line: EMSA; without RXR. As to conditions: label: 32P end label. The protocol:
as §3, §4

T1 sequence (Q60641 other isoform, or with tags, fused parts or gaps, chain 1 of 2): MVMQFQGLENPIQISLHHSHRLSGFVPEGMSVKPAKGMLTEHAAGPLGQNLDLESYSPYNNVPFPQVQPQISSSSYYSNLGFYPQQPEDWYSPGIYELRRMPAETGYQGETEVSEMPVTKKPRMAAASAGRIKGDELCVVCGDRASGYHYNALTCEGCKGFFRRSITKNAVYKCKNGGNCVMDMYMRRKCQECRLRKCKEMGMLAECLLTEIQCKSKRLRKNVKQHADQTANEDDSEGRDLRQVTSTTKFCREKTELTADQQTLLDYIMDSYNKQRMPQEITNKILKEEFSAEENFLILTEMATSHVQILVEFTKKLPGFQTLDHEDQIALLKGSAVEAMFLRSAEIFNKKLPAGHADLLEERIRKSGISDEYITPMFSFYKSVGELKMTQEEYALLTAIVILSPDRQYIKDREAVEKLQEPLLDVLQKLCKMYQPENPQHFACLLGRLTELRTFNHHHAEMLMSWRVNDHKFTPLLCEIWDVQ
T1 sequence (P19793 whole entry, chain 2 of 2): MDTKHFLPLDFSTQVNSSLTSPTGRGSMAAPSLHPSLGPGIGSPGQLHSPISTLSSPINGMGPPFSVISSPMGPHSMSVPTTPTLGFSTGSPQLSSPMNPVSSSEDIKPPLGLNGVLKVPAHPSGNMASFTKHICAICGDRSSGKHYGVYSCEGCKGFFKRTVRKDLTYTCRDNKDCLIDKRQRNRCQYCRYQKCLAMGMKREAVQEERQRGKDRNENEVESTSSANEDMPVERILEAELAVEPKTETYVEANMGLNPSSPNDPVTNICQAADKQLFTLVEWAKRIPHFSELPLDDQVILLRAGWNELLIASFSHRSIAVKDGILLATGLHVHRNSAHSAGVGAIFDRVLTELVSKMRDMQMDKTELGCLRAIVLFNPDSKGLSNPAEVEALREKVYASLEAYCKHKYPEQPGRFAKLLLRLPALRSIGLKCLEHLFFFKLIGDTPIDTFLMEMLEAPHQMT
Chain of RIP15/RXRalpha heterodimer (P19793 whole entry, canonical isoform, one chain of several): as the sequence (P19793 whole entry, chain 2 of 2) above

B1: betaRARE (dsDNA)
DNA 1: GATCCGGGTAGGGTTCACCGAAAGTTCACTCGA
DNA 2: TCGAGTGAACTTTCGGTGAACCCTACCCGGATC
B1: the binding result in data set [1] is reported as “binds”.

B2: hsp27 EcRE (dsDNA)
DNA 1: CTAGACAAGGGTTCAATGCACTTGTCCATCG
DNA 2: CGATGGACAAGTGCATTGAACCCTTGTCTAG
For the molecule B2, the binding result in data set [2] is given as “binds”; in data set [3] it was “no binding”; in data set [4] it was “no binding”.
